Results taken from article PMC2172719.

Target: Ufd1–Npl4ΔZF complex (UniProt Q9ES53)
Experiment: co-IP

With “polyubiquitin chains with lysine 63 linkages (from UniProt P0CG53 1-76)” the percent of the input material bound was less than 5%.
